Measurements taken from paper PMC10445657.

Molecular target: T1, RORα S100D (human, UniProt P35398 1-523, S100D)
T1 sequence: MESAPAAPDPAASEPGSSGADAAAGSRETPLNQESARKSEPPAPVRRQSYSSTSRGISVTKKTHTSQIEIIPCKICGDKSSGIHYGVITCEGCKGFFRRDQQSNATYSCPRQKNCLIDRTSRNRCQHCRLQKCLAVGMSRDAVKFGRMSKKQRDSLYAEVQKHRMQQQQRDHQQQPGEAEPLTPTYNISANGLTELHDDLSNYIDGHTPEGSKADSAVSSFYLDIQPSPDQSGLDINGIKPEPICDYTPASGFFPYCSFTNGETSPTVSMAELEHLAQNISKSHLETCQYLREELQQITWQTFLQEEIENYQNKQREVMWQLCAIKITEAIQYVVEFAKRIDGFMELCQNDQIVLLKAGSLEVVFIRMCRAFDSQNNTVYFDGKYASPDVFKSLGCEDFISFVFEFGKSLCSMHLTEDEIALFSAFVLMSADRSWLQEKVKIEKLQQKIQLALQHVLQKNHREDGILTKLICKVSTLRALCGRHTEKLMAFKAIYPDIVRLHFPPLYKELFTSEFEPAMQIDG
Test: EMSA

Binder | binding result
RORE probe (dsDNA) DNA 1: GATCTCGACTCGTATATCAAGGTCATGCTG DNA 2: CAGCATGACCTTGATATACGAGTCGAGATC | no binding
HRE probe (dsDNA) DNA 1: GATCTCGACAGTGACCCTTTTAACCAGGTCAGTGAG DNA 2: CTCACTGACCTGGTTAAAAGGGTCACTGTCGAGATC | no binding
